Measurements taken from US20070160576A1, “IL-17A/F heterologous polypeptides and therapeutic uses thereof” (Genentech, Inc., priority 2001, published 2007).

T1: PRO20040 (human IL-17RH2 receptor) (human, UniProt Q8NAC3-3 21-452)
T1 sequence (looked up): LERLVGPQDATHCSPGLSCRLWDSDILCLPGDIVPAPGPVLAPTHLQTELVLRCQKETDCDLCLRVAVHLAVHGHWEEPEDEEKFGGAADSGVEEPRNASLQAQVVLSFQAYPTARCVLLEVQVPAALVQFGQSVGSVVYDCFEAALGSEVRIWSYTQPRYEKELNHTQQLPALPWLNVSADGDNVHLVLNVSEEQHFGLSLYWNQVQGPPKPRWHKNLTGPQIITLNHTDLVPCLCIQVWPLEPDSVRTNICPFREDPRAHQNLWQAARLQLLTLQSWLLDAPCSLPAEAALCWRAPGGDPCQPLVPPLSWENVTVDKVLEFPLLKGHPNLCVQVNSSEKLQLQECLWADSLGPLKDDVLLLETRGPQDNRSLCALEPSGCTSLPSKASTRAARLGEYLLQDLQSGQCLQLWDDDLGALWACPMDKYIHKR

T2: PRO5801 (human IL-17RH1 receptor) as tested in the receptor/ligand screen (human, UniProt Q9NRM6 18-292, limits assumed)
T2 sequence (looked up): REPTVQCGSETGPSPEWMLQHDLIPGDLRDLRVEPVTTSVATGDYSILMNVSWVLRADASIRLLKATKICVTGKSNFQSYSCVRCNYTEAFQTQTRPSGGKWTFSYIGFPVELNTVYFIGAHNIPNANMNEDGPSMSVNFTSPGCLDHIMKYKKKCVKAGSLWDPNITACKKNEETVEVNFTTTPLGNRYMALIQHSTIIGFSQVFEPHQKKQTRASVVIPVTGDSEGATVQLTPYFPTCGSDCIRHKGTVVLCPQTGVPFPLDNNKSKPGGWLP

B1: PRO21175 (IL-17D ligand) (ligand, UniProt Q8TAD2 16-202, looked up)
chain: AGAPRAGRRPARPRGCADRPEELLEQLYGRLAAGVLSAFHHTLQLGPREQARNASCPAGGRPADRRFRPPTNLRSVSPWAYRISYDPARYPRYLPEAYCLCRGCLTGLFGEEDVRFRSAPVYMPTVVLRRTPACAGGRSVYTEAYVTIPVGCTCVPEPEKDADSINSSIDKQGAKLLLGPNDAPAGP
B2: IL-17F: human IL-17F ligand, SEQ ID NO:4 (protein, listed as Homo sapiens)
chain: MTVKTLHGPAMVKYLLLSILGLAFLSEAAARKIPKVGHTFFQKPESCPPVPGGSMKLDIGIINENQRVSMSRNIESRSTSPWNYTVTWDPNRYPSEVVQAQCRNLGCINAQGKEDISMNSVPIQQETLVVRRKHQGCSVSFQLEKVLVTVGCTCVTPVIHHVQ
B3: PRO1122 (IL-17C ligand) (ligand, UniProt Q9P0M4 19-197, looked up)
chain: HHDPSLRGHPHSHGTPHCYSAEELPLGQAPPHLLARGAKWGQALPVALVSSLEAASHRGRHERPSATTQCPVLRPEEVLEADTHQRSISPWRYRVDTDEDRYPQKLAFAECLCRGCIDARTGRETAALNSVRLLQSLLVLRRRPCSRDGSGLPTPGAFAFHTEFIHVPVGCTCVLPRSV

Key:
[1] = target: T1, PRO20040 (human IL-17RH2 receptor); assay: receptor/ligand screen, FIG. 14
From the text: (§1) A PRO polypeptide of the present invention suspected of being a ligand for a receptor is expressed as a fusion protein containing the Fc domain of human IgG (an immunoadhesin). Receptor-ligand binding is detected by allowing interaction of the immunoadhesin polypeptide with cells (e.g. Cos cells) expressing candidate PRO polypeptide receptors and visualization of bound immunoadhesin with fluorescent reagents directed toward the Fc fusion domain and examination by microscope. Cells expressing candidate receptors are produced by transient transfection, in parallel, of defined subsets of a library of cDNA expression vectors encoding PRO polypeptides that may function as receptor molecules. Cells are then incubated for 1 hour in the presence of the PRO polypeptide immunoadhesin being tested for possible receptor binding. The cells are then washed and fixed with paraformaldehyde. The cells are then incubated with fluorescent conjugated antibody directed against the Fc portion of the PRO polypeptide immunoadhesin (e.g. FITC conjugated goat anti-human-Fc antibody). The cells are then washed again and examined by microscope. A positive interaction is judged by the presence of fluorescent labeling of cells transfected with cDNA encoding a particular PRO polypeptide receptor or pool of receptors and an absence of similar fluorescent labeling of similarly prepared cells that have been transfected with other cDNA or pools of cDNA. If a defined pool of cDNA expression vectors is judged to be positive for interaction with a PRO polypeptide immunoadhesin, the individual cDNA species that comprise the pool are tested individually (the pool is “broken down”) to determine the specific cDNA that encodes a receptor able to interact with the PRO polypeptide immunoadhesin.
(§2) In another embodiment of this assay, an epitope-tagged potential ligand PRO polypeptide (e.g., 8 histidine “His” tag) is allowed to interact with a panel of potential receptor PRO polypeptide molecules that have been expressed as fusions with the Fc domain of human IgG (immunoadhesins). Following a 1 hour co-incubation with the epitope tagged PRO polypeptide, the candidate receptors are each immunoprecipitated with protein A beads and the beads are washed. Potential ligand interaction is determined by Western blot analysis of the immunoprecipitated complexes with antibody directed towards the epitope tag.

[2] = target: T2, PRO5801 (human IL-17RH1 receptor) as …; assay: receptor/ligand screen, FIG. 14
From the text: as §1, §2

[3] = target: T3, Cos cells transfected with IL-17R (Homo sapiens, UniProt Q96F46); assay: Binding to Cos cells transfected with IL-17R; format: cell-based; details: data not shown
T3 construct: expressed in transfected cells; host or cells: Cos cells

IL-17R = target: T4, IL-17R (Homo sapiens, UniProt Q96F46); assay: SPR competition for receptor binding to immobilized IL-17; details: IL-17R 500 nM; IL-17F at 2 ┘M
T4 construct: the extracellular domains (ECDs) of either of the two receptors IL-17R (designated PRO1) and IL-17RH1 (PRO5801)
Experimental: The kinetics and affinity of IL-17, IL-17E (PRO10272), or IL-17F (PRO20110) binding to IL-17R or IL-17RH1 (PRO5801) were determined by SPR measurements on a Pharmacia BIAcore 1000 instrument (Phamacia Biosensor, Piscataway N.J.). IL-17 ligand or receptor was immobilized onto a flow cell of a CM5 sensor chip via random coupling to amino groups, N-hydroxysuccinimide chemistry, by using a protocol developed by the manufacturer. An immobilization level of about 500 resonance units (RU) was obtained for IL-17R, IL-17RH1, and IL-17F, whereas IL-17 and IL-17E immobilization levels were 1200 and 1500 RU, respectively. A strong signal was obtained for IL-17R binding to immobilized IL-17. […] After blocking unreacted sites with ethanolamine, binding measurements were performed using a flow rate of 25 ┘L/min. Sensorgrams-were obtained for a series of six, two-fold serially diluted protein solutions. The highest concentration used was 1000 or 500 nM protein and the solutions were prepared in the running buffer, PBS containing 0.05% Tween-20. […] Sensorgrams were evaluated according to a 1:1 binding model by non-linear regression analysis using software supplied by the manufacturer. […] The amount of bound receptor was determined from the resonance signal obtained after completion of the association phase. […]

Molecule | binding result [1] | binding result [2] | binding to Cos cells transfected with IL-17R [3] | competition for binding of IL-17R to immobilized IL-17 (IL-17R)
B1 | no binding | no binding | – | –
B2 | – | – | enhanced binding | no competition
B3 | no binding | no binding | – | –
